Results on one molecule are retold here after US6498233, “Nucleic acid transfer system” (Winfried).

For the data set, the target named is scFv(FRP5)-deltaETA-deltaGAL4 (synthetic construct (Saccharomyces …)). In words: EMSA; […] (printed ml); 50 mM Hepes pH 7.5, 50 mM KCl, 5 mM MgCl2, […], room temperature; […] (11.3). The settings on record: tags: N-terminal FLAG and His6, C-terminal KDEL signal; chain copies: 2 (stated; dimer per site, two dimers on tandem site); label: 5'-32P. Background: In EMSA bound probe runs differently from free probe, usually more slowly.

B1: G4 oligonucleotide (two GAL4 motifs) (dsDNA)
DNA 1: AGCTTGGATCCGGAGGACAGTCCTCCGGAGACCGGAGGACAGTCCTCC
DNA 2: GATCGGAGGACTGTCCTCCGGTCTCCGGAGGACTGTCCTCCGGATCCA
As for B1, the binding result is given as “binds”.
